Laboratory results taken from patent US20120195910A1 (published 2012).

Key:
[1] = target: Human PCSK9 (Genbank EF692496) containing a histidine (His)8 C-terminal tag (UniProt Q8NBP7 31-692); assay: BIAcore SPR; FIG. 3A
biotinylated human PCSK9 = biotinylated human PCSK9 (UniProt Q8NBP7 31-692, biotinylated (sites not given)); assay: competition binding ELISA (PCSK9-LDLR)

| Kd [1] [nM] | IC50 (biotinylated human PCSK9) [nM] | Binder |
| --- | --- | --- |
| 0.481 | 1.39 | YW508.20.84 (antibody, V domains shown) VH: EVQLVESGGGLVQPGGSLRLSCAASGFTFTGYAIHWVRQAPGKGLEWVARISPANGNTNYADSVKGRFTISADTSKNTAYLQMNSLRAEDTAVYYCARWIGSRELYIMDYWGQGTLVTVSS VL: DIQMTQSPSSLSASVGDRVTITCRASQDVSTAVAWYQQKPGKAPKLLIYSASFLYSGVPSRFSGSGSGTDFTLTISSLQPEDFATYYCQQSYPAPSTFGQGTKVEIKR |
| 0.408 | 1.31 | YW508.20.33 (antibody, V domains shown) VH: EVQLVESGGGLVQPGGSLRLSCAASGFTFSSTAIHWVRQAPGKGLEWVARISPANGNTNYADSVKGRFTISADTSKNTAYLQMNSLRAEDTAVYYCARWIGSRELYIMDYWGQGTLVTVSS VL: DIQMTQSPSSLSASVGDRVTITCRASQDVSTAVAWYQQKPGKAPKLLIYSASFLYSGVPSRFSGSGSGTDFTLTISSLQPEDFATYYCQQSYPALHTFGQGTKVEIKR |
| – | 15.2 | YW508.20 (antibody, V domains shown) VH: EVQLVESGGGLVQPGGSLRLSCAASGFTFTGYAIHWVRQAPGKGLEWVGRISPANGNTNYADSVKGRFTISADTSKNTAYLQMNSLRAEDTAVYYCARWIGSRELYIMDYWGQGTLVTVSS VL: DIQMTQSPSSLSASVGDRVTITCRASQDVSSAVAWYQQKPGKAPKLLIYSASSLYSGVPSRFSGSRSGTDFTLTISSLQPEDFATYYCQQSYTTPPTFGQGTKVEIKR |
| 0.628 | 1 | YW508.20.06 (antibody, V domains shown) VH: EVQLVESGGGLVQPGGSLRLSCAASGFTFTGYAIHWVRQAPGKGLEWVARISPANGNTNYADSVKGRFTISADTSKNTAYLQMNSLRAEDTAVYYCARWIGSRELYIMDYWGQGTLVTVSS VL: DIQMTQSPSSLSASVGDRVTITCRASQDVSTAVAWYQQKPGKAPKLLIYSASFLYSGVPSRFSGSGSGTDFTLTISSLQPEDFATYYCQQSYPSPATFGQGTKVEIKR |
| 0.757 | 0.92 | YW508.20.04 (antibody, V domains shown) VH: EVQLVESGGGLVQPGGSLRLSCAASGFTFTGYAIHWVRQAPGKGLEWVGRISPANGNTNYADSVKGRFTISADTSKNTAYLQMNSLRAEDTAVYYCARWIGSRELYIMDYWGQGTLVTVSS VL: DIQMTQSPSSLSASVGDRVTITCRASQDVSTAVAWYQQKPGKAPKLLIYSASFLYSGVPSRFSGSGSGTDFTLTISSLQPEDFATYYCQQSYPAPATFGQGTKVEIKR |
| 0.349 | 1.05 | YW508.20.28 (antibody, V domains shown) VH: EVQLVESGGGLVQPGGSLRLSCAASGFTFTRHTIHWVRQAPGKGLEWVARISPANGNTNYADSVKGRFTISADTSKNTAYLQMNSLRAEDTAVYYCARWIGSRELYIMDYWGQGTLVTVSS VL: DIQMTQSPSSLSASVGDRVTITCRASQDVSTAVAWYQQKPGKAPKLLIYSASFLYSGVPSRFSGSGSGTDFTLTISSLQPEDFATYYCQQSYRIQPTFGQGTKVEIKR |
